In patent US6884600B1, “Protein phosphatase-1 catalytic subunit interactions” (Medical Research Council London, priority 1996, dated 2005):

Tests used:
[1] = system: M21 subunit; assay: Far Western blotting: interaction with the M21 subunit; type: binding, chicken; details: probe 0.2 μg/ml
Protocol: A) PP1M 5 μg (track 1), 10 μg bacterial extract containing M110-(R714-I1004) (track 2), MBP-M110-(R714-I004) 1 μg (track 3), MBP-M110-(R714-L934) 1 μg (track 4), MBP-M110-(K933-I1004) 1 μg (track 5), MBP 1 μg (track 6), M110-(M1-E309) 2 μg (lane 7) and M110-(M1-S477) 2 μg (track 8) were run on a 12% SDS/polyacrylamide gel and stained with Coomassie Blue. B) same as A) except that 10-fold less protein was electrophoresed and after transfer to nitrocellulose the proteins were probed with digoxigenin-labelled M21 subunit (0.2 μg/ml). C) same as B) except that, after electrophoresis, the proteins were transferred to nitrocellulose and probed with digoxigenin-labelled M21-(M1-L146) (0.2 μg/ml).
A) GST-M21 5 μg (track 1), M21 5 μg (track 2), M21-(M1-L146) 5 μg (track 3), M21-(M1-E110) 20 μg (track 4) and M21-(E110-K186) 5 μg (track 5) were run on 16.5% polyacrylamide gels and stained with Coomassie Blue. The marker proteins ovalbumin (43 kDa) and carbonic anhydrase (29 kDa) are indicated. B) GST-M21 0.5 μg (track 1), M21 0.5 μg (track 2), M21-M1-L146) 0.5 μg (track 3), M21-(M1-E110) 5 μg (track 4) and M21-(E110-K186) 5 μg (track 5) were electrophoresed as in A) and after transfer to nitrocellulose the blots were probed with digoxigenin-labelled MBP-M110-(K933-I1004) (0.2 μg/Ml). C) same as B) except that, after electrophoresis, the proteins were transferred to nitrocellulose and probed with digoxigenin-labelled M21 subunit (0.2 μg/ml).
PP1M (0.5 μAg) was electrophoresed on a 12% SDS/polyacrylamide gel, transferred to nitrocellulose and probed with digoxigenin-labelled M21 subunit (0.2 μg/ml) (track 1) or digoxigenin-labelled M21-(M1-L146) (0.2 μg/ml) (track 2). The positions of the M110 subunit, the M21 subunit and PP1c are marked.
Proteins were labelled with digoxigenin and Far Western analyses carried out as described, except that the digoxigenin-labelled probe was used at a concentration of 0.2 μg/ml instead of 2 μg/ml. SDS/polyacrylamide gel electrophoresis was carried out on 7.5-15% gels according to Laemmli and on 16.5% gels according to Schagger and von Jagow. Protein was estimated according to Bradford.

[2] = molecular target: T1, myosin (Gallus gallus, UniProt P10587); assay: Myosin binding assay (pelleting with myosin); parameters: species or system chicken; details: myosin 1 μM, 15 min 0° C.
T1 construct: from tissue; host or cells: chicken gizzard
T1 sequence (P10587 whole entry): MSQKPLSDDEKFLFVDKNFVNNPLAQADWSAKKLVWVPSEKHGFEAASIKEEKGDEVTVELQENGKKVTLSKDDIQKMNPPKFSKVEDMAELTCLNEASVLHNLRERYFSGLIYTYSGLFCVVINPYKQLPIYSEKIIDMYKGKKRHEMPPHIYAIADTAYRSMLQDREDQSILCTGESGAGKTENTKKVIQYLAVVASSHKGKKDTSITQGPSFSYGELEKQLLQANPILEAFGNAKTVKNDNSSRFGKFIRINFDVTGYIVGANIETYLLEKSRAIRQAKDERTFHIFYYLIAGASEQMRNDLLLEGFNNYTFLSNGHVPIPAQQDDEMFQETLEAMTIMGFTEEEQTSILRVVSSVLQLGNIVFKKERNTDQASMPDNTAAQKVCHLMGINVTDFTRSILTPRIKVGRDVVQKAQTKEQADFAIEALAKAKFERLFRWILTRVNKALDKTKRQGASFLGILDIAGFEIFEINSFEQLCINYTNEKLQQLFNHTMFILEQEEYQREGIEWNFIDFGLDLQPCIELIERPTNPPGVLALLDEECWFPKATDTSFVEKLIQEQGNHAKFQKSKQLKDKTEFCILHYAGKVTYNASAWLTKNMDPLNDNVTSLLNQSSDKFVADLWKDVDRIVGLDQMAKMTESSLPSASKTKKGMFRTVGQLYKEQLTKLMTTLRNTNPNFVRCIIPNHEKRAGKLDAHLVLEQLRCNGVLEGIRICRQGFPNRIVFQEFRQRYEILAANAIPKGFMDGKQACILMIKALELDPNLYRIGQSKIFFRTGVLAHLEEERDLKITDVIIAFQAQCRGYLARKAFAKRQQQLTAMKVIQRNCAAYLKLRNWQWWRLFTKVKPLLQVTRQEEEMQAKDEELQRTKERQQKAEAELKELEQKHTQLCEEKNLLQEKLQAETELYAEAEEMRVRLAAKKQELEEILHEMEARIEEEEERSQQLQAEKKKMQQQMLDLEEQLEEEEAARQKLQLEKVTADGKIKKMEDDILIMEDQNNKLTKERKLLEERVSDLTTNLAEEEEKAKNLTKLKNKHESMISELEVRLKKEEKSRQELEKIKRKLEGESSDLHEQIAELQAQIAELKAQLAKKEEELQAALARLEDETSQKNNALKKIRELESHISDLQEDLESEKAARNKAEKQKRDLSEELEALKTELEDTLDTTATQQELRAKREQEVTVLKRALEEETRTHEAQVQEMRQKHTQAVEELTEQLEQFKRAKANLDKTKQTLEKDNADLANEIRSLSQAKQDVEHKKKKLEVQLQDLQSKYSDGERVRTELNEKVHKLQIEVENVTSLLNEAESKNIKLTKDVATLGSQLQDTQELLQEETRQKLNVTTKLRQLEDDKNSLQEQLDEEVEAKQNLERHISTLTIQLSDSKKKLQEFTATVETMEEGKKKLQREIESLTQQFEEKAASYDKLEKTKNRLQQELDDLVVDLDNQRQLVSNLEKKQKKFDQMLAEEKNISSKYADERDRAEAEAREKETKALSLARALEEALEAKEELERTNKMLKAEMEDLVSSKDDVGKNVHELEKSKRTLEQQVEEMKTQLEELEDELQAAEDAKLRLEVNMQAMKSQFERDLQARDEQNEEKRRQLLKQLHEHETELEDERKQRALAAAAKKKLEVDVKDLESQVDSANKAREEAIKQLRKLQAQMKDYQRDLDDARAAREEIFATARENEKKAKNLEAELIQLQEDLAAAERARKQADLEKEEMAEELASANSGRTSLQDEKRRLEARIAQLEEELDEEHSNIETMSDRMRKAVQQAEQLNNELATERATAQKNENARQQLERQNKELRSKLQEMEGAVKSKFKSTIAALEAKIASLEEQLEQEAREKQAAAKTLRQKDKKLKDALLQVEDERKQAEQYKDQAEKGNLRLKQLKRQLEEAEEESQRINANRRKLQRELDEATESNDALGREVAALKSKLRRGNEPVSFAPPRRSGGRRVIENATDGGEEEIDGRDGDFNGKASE
T1 sequence (P02612 whole entry partner): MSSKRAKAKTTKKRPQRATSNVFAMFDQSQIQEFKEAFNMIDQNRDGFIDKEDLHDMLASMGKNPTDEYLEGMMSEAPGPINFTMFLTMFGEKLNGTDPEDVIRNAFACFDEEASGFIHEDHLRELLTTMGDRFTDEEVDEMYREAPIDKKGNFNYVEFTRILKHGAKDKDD
T1 sequence (P02607 whole entry partner): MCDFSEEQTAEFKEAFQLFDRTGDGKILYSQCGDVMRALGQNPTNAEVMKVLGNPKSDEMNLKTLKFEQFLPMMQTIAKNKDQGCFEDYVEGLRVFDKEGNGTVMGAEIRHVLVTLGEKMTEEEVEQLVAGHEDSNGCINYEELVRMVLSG
Protocol: The PP1 catalytic subunit (PP1c), PP1M, or PP1M lacking the M21 subunit, PP1M(ΔM21), each at 30 nM, were incubated for 15 min at 0° C. with 1 μM myosin and centrifuged (see Methods of Example 3). […] The results shown are the average (±S.E.M.) for three separate experiments each assayed in duplicate.
(A); PP1M, M110-(M1-S477) and GST-M110-(M377-K976), each at 30 nM were incubated for 15 min at 0° C. with 1 μM myosin and centrifuged. The supernatants (S), resuspended pellets (P) and the suspension before centrifugation (T, total) were electrophoresed on 12% SDS/polyacrylamide gels, transferred to nitrocellulose and immunoblotted with antibodies raised against the PP1M holoenzyme. No protein was pelleted in the absence of myosin (not shown). The positions of the marker proteins myosin heavy chain (200 kDa), glycogen phosphorylase (97 kDa), bovine serum albumin (66 kDa), ovalbumin (43 kDa), carbonic anhydrase (29 kDa) and soybean trypsin inhibitor (20 kDa) are indicated. (B) The experiments were carried out as in (A), except that the M110 fragments and M21 subunit were used at 100 nM, the 8.5 kDa M110-(K933-I1004) fragment was electrophoresed on a 16.5% polyacrylamide gel and immunoblotting was carried out with affinity purified antibodies (see Methods). A small amount of M110-(R714-I1004) pelleted in the absence of myosin. […] No other protein was pelleted in the absence of myosin.
(A); Myosin (1 μM) was mixed with 50 μM, 20 μM or 10 μM M21 subunit to give the molar ratios M21:myosin dimer indicated. After 15 min at 0° C., the solutions were centrifuged and the supernatants (S), resuspended pellets (P) and the suspension before centrifugation (T, total) were electrophoresed on 12% SDS/polyacrylamide gels and stained with Coomassie blue. The positions of the myosin heavy chain (MHC) and the M21 subunit are indicated. The myosin light chains migrate faster than the M21 subunit and are not visible at these loadings.
Myosin binding assays. Myosin (0.5 mg/ml, 1 μM in terms of myosin heavy chains) in 10 mM Hepes pH 7.5, 50 mM KCl, 5 mM MgCl2, 0.1% (by vol) 2-mercaptoethanol, was mixed with PP1M, M21 subunit, or fragments of the M110 and M21 subunits, at the concentrations indicated in figure legends. After incubation for 15 min at 0° C., the solutions were centrifuged for 2 min at 13,000×g, the supernatants removed, and the pellets washed twice in 10 mM Hepes pH 7.5, 50 mM KCl, 5 mM MgCl2, 0.1% (by vol) 2-mercaptoethanol before resuspension in 50 mM Tris-HCl pH 7.5, 0.1 mM EGTA, 0.03% (by mass) Brij 35, 0.6 M NaCl, 0.1% (by vol) 2-mercaptoethanol. Aliquots of the supernatant, the resuspended pellet and the suspension before centrifugation were either assayed for myosin P-light chain phosphatase activity or denatured in SDS and analysed by SDS/polyacrylamide gel electrophoresis.

Molecule	recognised by digoxigenin-labelled M21 subunit in Far Western blotting [1]	binding to myosin [2]
M110-(K933-I1004): C-terminal 72 residues of the chicken gizzard M110 subunit (protein, UniProt Q90623 933-1004, looked up, fragment) KLYEQILAENEKLKAQLHDTNMELTDLKLQLEKTTQRQERFADRSLLEMEKRVSGKSQYLLGGKKSSRKKDI	recognised	did not bind to myosin
M110-(R714-I1004): C-terminal 291 residues of the chicken gizzard M110 subunit (protein) RSTRTREQENEEKEKEEKEKQDKEKQEEKKESETKDDDYRQRYSRTVEEPYHRYRPTSTSTSTSSTSSLSTSTSSLSSSSQLNRPNSLIGITSAYSRSGTKESEREGGKKEEEKEEDKSQPKSIRERRRPREKRRSTGVSFWTQDSDENEQEHQSDSEEGTNKKETQSDSLSRYDTGSLSVSSGDRYDSAQGRSGSQSYLEDRKPYCSRLEKEDSTDFKKLYEQILAENEKLKAQLHDTNMELTDLKLQLEKTTQRQERFADRSLLEMEKRVSGKSQYLLGGKKSSRKKDI	recognised	bound to myosin
complex between GST-M21 and M110-(R714-I1004): complex purified on glutathione-Sepharose from GST-M21 mixed with bacterial extract expressing M110-(R714-I1004) (protein, left off: a dimerising Fc or GST; small tags and cut ends) GST-M21 (M21 part): MSSLFTRSKEYTRSRKSQSDSPPSSPSPIAKTLRHERLSRLEAATTPATSDSYSDRASSRSSAYSRRENRLAALSSRAEEESNRDYKKLYESALSENQKLKSKLQEAQLELADIKSKLEKAAQQKHEKTSDRSSMLEMEKREKRALERKLSEMEEEMKILTELKSDNQRLKDENGALIRVISKLSK M110-(R714-I1004): RSTRTREQENEEKEKEEKEKQDKEKQEEKKESETKDDDYRQRYSRTVEEPYHRYRPTSTSTSTSSTSSLSTSTSSLSSSSQLNRPNSLIGITSAYSRSGTKESEREGGKKEEEKEEDKSQPKSIRERRRPREKRRSTGVSFWTQDSDENEQEHQSDSEEGTNKKETQSDSLSRYDTGSLSVSSGDRYDSAQGRSGSQSYLEDRKPYCSRLEKEDSTDFKKLYEQILAENEKLKAQLHDTNMELTDLKLQLEKTTQRQERFADRSLLEMEKRVSGKSQYLLGGKKSSRKKDI		bound quantitatively to myosin
M110-(M1-S477): rat aorta M110 fragment, residues 1-477, GST tag removed (protein, UniProt Q10728 1-477, looked up, fragment) MKMADAKQKRNEQLKRWIGSETDLEPPVVKRQKTKVKFDDGAVFLAACSSGDTDEVLKLLHRGADINYANVDGLTALHQACIDDNVDMVKFLVENGANINQPDNEGWIPLHAAASCGYLDIAEFLIGQGAHVGAVNSEGDTPLDIAEEEAMEELLQNEVNRQGVDIEAARKEEERIMLRDARQWLNSGHISDVRHAKSGGTALHVAAAKGYTEVLKLLIQAGYDVNIKDYDGWTPLHAAAHWGKEEACRILVDNLCDMETVNKVGQTAFDVADEDILGYLEELQKKQNLLHSEKRDKKSPLIESTANMENNQPQKTFKNKETLIIEPEKNASRIESLEQEKADEEEEGKKDESSCSSEEDEEDDSESEAETDKTKPMASVTNAHTASTQAAPAAVTTPTLSSNQGTPTSPVKKFPTSTTKISPKEEERKDESPASWRLGLRKTGSYGALAEITASKEAQKEKDTAGVIRSASSPRLS	not	did not bind to myosin
